For the series, the system named is MS2 coat protein. Description: apparent KD of MS2 coat protein; designed switch direction (-1 OFF switch, 1 ON switch): -1; higher = weaker reporter binding. In outline:
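SNAP-549-labelled MS2 coat protein was titrated, doubling from 0.7 or 1.5 nM to 3 µM, over designed RNA switches transcribed on Illumina chips by stalled E. coli RNA polymerase. Runs were done without input, with 200 uM small-molecule ligand, or with an oligonucleotide input. Apparent KD is the per-design median over clusters of curve-fitted normalised fluorescence.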

The mark [1] stands for this setting: input ligand: microRNA oligo, concentration not stated.
Setting [2] is: Eterna round: R95, input ligand: microRNA oligo, concentration not stated.
Where [3] appears, read: Eterna round: R95, input ligand: FMN 200 uM.
[4] abbreviates: Eterna round: R95, input ligand: none.

“AAAUACAGAGGAUAUAUGGAAAACGACUUGAGGAUCACCCAAGUACGGGUGGCCUAACCCGUAGAAGGCUGCCAAA [Tibece] (Eterna round: R97, puzzle: Exclusion 5)”: the “apparent KD of MS2 coat protein” value (input ligand: FMN 200 uM) is 72.5 nM and the “apparent KD of MS2 coat protein” value (input ligand: none) stood at 30.6 nM.

As for “AAAUACCGGUGAGGAUAUUUUUAAUAGAGCUUUAUGAUAUACAUGAGGAUCACCCAUGUUACGUUAAAGAAGGCAUCGGAUAAA [Mat - Exclusion NG 2 - Mod of JL - D98] (Eterna round: R96, puzzle: Exclusion NG 2)”, under setting [1], the “apparent KD of MS2 coat protein” value is 13.9 nM.

As to “AAAUAGCUUGAGGAUAUUGGAUUGGAUUUAGUGCGAGAAGGCAAGACAUGAGGAUCACCCAUGUUGUGUUGGGA [EX6 #12] (Eterna round: R97, puzzle: Exclusion 6)”, the “apparent KD of MS2 coat protein” value runs as follows: (input ligand: FMN 200 uM) 72.7 nM; (input ligand: none) 55.1 nM.

Take “AAAUAGUUAGGAUAUACAUGAGGAUCACCCAUGUAGGGUUCCGUCAUGCAGAAAAUGCGUAGAAGGAACUAUCC [EX3 A.22] (Eterna round: R97, puzzle: Exclusion 3)”: the “apparent KD of MS2 coat protein” value was 16.6 nM (input ligand: FMN 200 uM) and 17.6 nM (input ligand: none).

On to “AAAUAUCAUGUAGGAUAUGGAAGGCGAACCUAUCCAGAAGGACAUGAGGAUCACCCAUGUGCUGAGUUGUCCGUAGACAGCUCU [Ex NG1 #3] (Eterna round: R96, puzzle: Exclusion NG 1)”, for which the “apparent KD of MS2 coat protein” value was 168 nM (input ligand: FMN 200 uM), 27.1 nM under setting [1] and 31 nM (input ligand: none).

As to “AAAUCGCAAGGAUAUCGUCAGUCUGACAUGAGGAUCACCCAUGUUAUCUUGGUAUCAGAGCGAGAAGGUGCAAAGU [Erbied] (Eterna round: R96, puzzle: Exclusion 5)”, the “apparent KD of MS2 coat protein” value was determined as 10.8 nM (input ligand: FMN 200 uM), 9.45 nM under setting [1] and 14.6 nM (input ligand: none).

As to “AAAUCGCAAGGAUAUCGUCAGUCUGACAUGAGGAUCACCCAUGUUAUCUUGGUAUCAGAGCGAGAAGGUGCAAAGU [Erbied] (puzzle: Exclusion 5)”, the “apparent KD of MS2 coat protein” value under setting [2] turned out to be 12.5 nM.

Regarding “AAAUCUGAGGAGGAUAUGGUAUAGGAAAUGGUGCCAGAAGGUUUCACAUGAGGAUCACCCAUGUCAAAUAGUGA [EX6 #63] (Eterna round: R97, puzzle: Exclusion 6)”, the “apparent KD of MS2 coat protein” value was determined as 45.7 nM (input ligand: FMN 200 uM) and 52.5 nM (input ligand: none).

“AAAUGCAAGCAAAGAUUCUACAUGAGGAUCACCCAUGUGCUCGUCUUAUAAAGUACUAUCACGAAAGUGAUAGUACA [Sensor 3, v1 - 34] (puzzle: Sensor v3, turn-off variant 1)”: the “apparent KD of MS2 coat protein” value is, setting by setting: under setting [3], 18.2 nM; under setting [2], 88.3 nM; under setting [4], 17.6 nM.

Regarding “AAAUGCAAGUAAAGAUCCUACAUGAGGAUCACCCAUGUGCUCGUCUUAUAAAGUACUAUCACGAAAGUGAUAGUACA [Sensor 3, v1 - 21] (puzzle: Sensor v3, turn-off variant 1)”, the “apparent KD of MS2 coat protein” value runs as follows: under setting [3], 161 nM; under setting [2], 30.2 nM; under setting [4], 211 nM.

As for “AAAUGGCAAGGAUAUACAGUAAUGAGGCUUAUGUCCGCUAAACAUGAGGAUCACCCAUGUAGAAGGUGCAAAGA [Maarear] (Eterna round: R97, puzzle: Exclusion 2)”, the “apparent KD of MS2 coat protein” value reads like this: (input ligand: FMN 200 uM) 69.1 nM; (input ligand: none) 42.4 nM.

Turning to “AAAUUAAUGGUAAGGAUAUGAUGCAGGAAACUGCGUCAGAAGGUACAUGAGGAUCACCCAUGUUAAACUAAUUU [Explosion 9 - Jieux - Brourd's mod of Exclusion 4] (Eterna round: R97, puzzle: Brourd's mod of Exclusion 4)”, the “apparent KD of MS2 coat protein” value (input ligand: FMN 200 uM) came out at 18.2 nM and the “apparent KD of MS2 coat protein” value (input ligand: none) turned out to be 14.2 nM.

“AAAUUGGUAGAGGAUAUCGGACAGGAUUUACUGCGAGAAGGCUGCACAUGAGGAUCACCCAUGUUUUGUUGCGA [EX6 #34] (Eterna round: R97, puzzle: Exclusion 6)”: the “apparent KD of MS2 coat protein” value by setting is: (input ligand: FMN 200 uM) 23.9 nM; (input ligand: none) 25.7 nM.

Turning to “AAAUUGGUAGAGGAUAUCGUACAGGAAACAAUGCGAGAAGGCUGCACAUGAGGAUCACCCAUGUUCAGUUGCGA [EX6 #40] (Eterna round: R97, puzzle: Exclusion 6)”, the “apparent KD of MS2 coat protein” value (input ligand: FMN 200 uM) is 16.8 nM and the “apparent KD of MS2 coat protein” value (input ligand: none) amounted to 15.2 nM.

Take “AAAUUGGUAGAGGAUAUCGUACAGGAAACACUGCGAGAAGGCUGCACAUGAGGAUCACCCAUGUUCAGUUGCGA [EX6 #39] (Eterna round: R97, puzzle: Exclusion 6)”: the “apparent KD of MS2 coat protein” value was found to be 17.3 nM (input ligand: FMN 200 uM) and 14.5 nM (input ligand: none).

In the case of “AAAUUGGUAGAGGAUAUCGUACAGGAAACGAUGCGAGAAGGUUGCACAUGAGGAUCACCCAUGUUUAGUUGCGA [EX6 #43] (Eterna round: R97, puzzle: Exclusion 6)”, the “apparent KD of MS2 coat protein” value came out at 23.3 nM (input ligand: FMN 200 uM) and 20.8 nM (input ligand: none).

Turning to “AAAUUGUGAGGAUAUUAGUUGUACGUCAAUAGACGUAUAAGUGAGAAGGCACAUGAGGAUCACCCAUGUUCCUG [Omei Ex4 Mod of Mat's R95 mod of Omei] (Eterna round: R97, puzzle: Exclusion 4)”, the “apparent KD of MS2 coat protein” value was 61.8 nM (input ligand: FMN 200 uM) and 16.8 nM (input ligand: none).

Turning to “AAAUUUGGAGGAUAUUCAUUGGGAAACAUGAGGAUCACCCAUGUGAUAUAAGGGAAAUCCGGAGAAGGCUAAAUUU [-17.1, -14.1 kcal, 37% A] (Eterna round: R97, puzzle: Exclusion 5)”, the “apparent KD of MS2 coat protein” value reads like this: (input ligand: FMN 200 uM) 30.7 nM; (input ligand: none) 28.2 nM.

For the sequence “AACAAACAUGAGGAUCACCCAUGUCAGGAUAUGCACAAACAAACAAACAAACAAGCAAGCAGAAGGGACACAAC [Amethyst 89] (Eterna round: R96, puzzle: Exclusion 1)”, the “apparent KD of MS2 coat protein” value runs as follows: (input ligand: FMN 200 uM) 34.7 nM; under setting [1], 22.4 nM; (input ligand: none) 24.8 nM.

On to “AACAAGCAAGGAUAUACCGGAGGUGUGUCCUCACCUAAGGGACUUGAGGAUCACCCAAGUAGAAGGUGCAACAA [Raxela] (Eterna round: R97, puzzle: Exclusion 2)”, for which the “apparent KD of MS2 coat protein” value reads like this: (input ligand: FMN 200 uM) 41.5 nM; (input ligand: none) 141 nM.

On to “AACAAGCUUUUUUGAUGAAUGAUAGUAGGUAGCUCCUUUACAUGAGGAUCACCCAUGUUUGUGUAGCUCGAUCUUUU [JR_SV3TOV2_Sub077] (puzzle: Sensor v3, turn-off variant 2)”, for which the “apparent KD of MS2 coat protein” value under setting [3] was 12.7 nM, the “apparent KD of MS2 coat protein” value under setting [2] turned out to be 16.2 nM and the “apparent KD of MS2 coat protein” value under setting [4] came out at 12.1 nM.

As for “AACACAUGAGGAUAUACAUGAGGAUCACCCAUGUUGUCACUACACCCGGGUGCCUGGUGUAGAAGGCAUGAAGA [Eternabot (Original) Solution 30] (Eterna round: R97, puzzle: Exclusion 3)”, the “apparent KD of MS2 coat protein” value runs as follows: (input ligand: FMN 200 uM) 71.2 nM; (input ligand: none) 34.1 nM.

As for “AACACUGCAGGAUAUACAUGAGGAUCACCCAUGUGAUCCGAUAACUCCCACGGGAGGAGUAGAAGGGUAAAAGG [Eternabot (Original) Solution 6] (Eterna round: R97, puzzle: Exclusion 3)”, the “apparent KD of MS2 coat protein” value was 170 nM (input ligand: FMN 200 uM) and 264 nM (input ligand: none).

(Values after the supplement of paper PMC9170038.)
